Laboratory results: PMC3961559
Read-outs that look alike come from different tables or passages of the source.

Experiments:
[1] = target: T1, human alpha-thrombin (Homo sapiens, UniProt P00734;P00734 328-363;364-622); experiment: competition
[2] = target: T1, human alpha-thrombin; experiment: competition; remark: listed apart in the source

Does GGCGTAACTGATCGATCGT (ssDNA) [non-specific oligonucleotide] bind [1]?
Result: no binding

Does GGTTGGTGTGGTTGG (structured_DNA) [thrombin binding aptamer (TBA) oligo] bind [2]?
Result: binds
